Data from patent publication US6790633.

Assays:
[1] = molecular target: T1, rat brain farnesyl:protein transferase (rat, UniProt Q04631 2-377; Q02293 1-437); test: cell-based or functional assay
[2] = molecular target: T1, rat brain farnesyl:protein transferase; test: cell-based or functional assay; remark: listed apart in the source

| concentration giving 50% inhibition [1] | Concentration For 50% Inhibition [2] | Binder | other results |
| --- | --- | --- | --- |
| 0.025 µM |  | CVFM | fold increase in affinity for the enzyme against CVIM [1]: 6 fold |
|  | 30 µM | CTVA |  |
| 0.5 µM |  | CVIF |  |
|  | 22 µM | CLLL |  |
|  | 3 µM | CVLS |  |
| 4 µM |  | CGIM |  |
| 1.5 µM |  | CEIM |  |
|  | 0.15 µM | CVIM |  |
|  | 0.15 µM | CAIM |  |
|  | 100 µM | CAIL |  |
|  | 0.35 µM | CCVQ |  |
|  | 1 µM | CVIS |  |
| 20 µM |  | CVPM |  |
| 12 µM | 11 µM | CVIL |  |
|  | 0.35 µM | CIIC |  |
|  | 0.2 µM | CSIM |  |
|  | 0.15 µM | CIIM |  |
|  | 5 µM | CVIA | fold decrease in affinity for the enzyme against CVIM, as estimated by the concentration required for 50% inhibition [1]: > 30 fold |
|  | 17 µM | CLIL |  |
|  | 0.15 µM | CVVM |  |
| 0.7 µM |  | CKIM |  |
| 8 µM |  | CPIM |  |
|  |  | CVAM | fold decrease in affinity for the enzyme against CVIM, as estimated by the concentration required for 50% inhibition [1]: > 30 fold |
|  | 0.35 µM | CIIS |  |
|  | > 100 µM | CIKS |  |
|  | 0.15 µM | CVLM |  |
